T1: recombinant human TRAIL R1 (DR4)/Fc chimera (human, UniProt O00220 24-239)
T1 construct: bought (R&D Systems); not shown: Fc of the bought chimera (R&D Systems)
T1 sequence: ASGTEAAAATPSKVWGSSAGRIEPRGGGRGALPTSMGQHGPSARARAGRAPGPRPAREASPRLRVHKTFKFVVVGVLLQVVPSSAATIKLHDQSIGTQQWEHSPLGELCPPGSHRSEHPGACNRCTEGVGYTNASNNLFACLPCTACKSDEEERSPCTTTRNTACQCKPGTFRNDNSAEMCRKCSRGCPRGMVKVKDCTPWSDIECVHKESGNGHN

T2: DR4 (TRAIL-R1) on cancer cells (human, UniProt O00220 24-468)
T2 sequence: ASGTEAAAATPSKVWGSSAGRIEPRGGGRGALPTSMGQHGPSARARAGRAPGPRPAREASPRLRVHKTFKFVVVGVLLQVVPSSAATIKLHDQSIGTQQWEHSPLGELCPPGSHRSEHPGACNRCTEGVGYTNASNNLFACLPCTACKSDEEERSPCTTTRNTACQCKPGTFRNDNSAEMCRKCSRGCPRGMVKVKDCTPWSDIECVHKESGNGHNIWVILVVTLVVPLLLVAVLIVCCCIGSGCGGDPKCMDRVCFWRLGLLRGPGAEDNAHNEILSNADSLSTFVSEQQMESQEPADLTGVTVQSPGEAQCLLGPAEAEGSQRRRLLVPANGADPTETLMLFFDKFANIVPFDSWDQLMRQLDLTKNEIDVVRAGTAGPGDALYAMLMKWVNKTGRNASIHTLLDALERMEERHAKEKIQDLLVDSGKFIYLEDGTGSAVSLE

B1: 29p61P1E11 (designed binder)
chain: EPPTQKPKKIVNAKKDVVNTKMFEELKSRLDTLAQEVALLKEQQALQTVCLKGTKVHMKCFLAFTQTKTFHEASEDCISRGGTLSTPQTGSENDALYEYLRQSVGNEAEIWLGLNGWLEGVGWVDMTGARIAYKNWETEITAQPDGGWPFSNENCAVLSGAANGKWFDKRCRDQLPYICQFGIV
notes: ATRIMER; also called 029-61.1E11
B2: 119p94P1G7 (designed binder)
chain: B1 chain with E137G, T138W, E139S, I140A, T141R, A142V
notes: ATRIMER from pANA19
B3: 71p88P1F2 (designed binder)
chain: B1 chain with V121S, W148F, F150A, S151R, N152W
B4: 71p88P1B3 (designed binder)
chain: B1 chain with V121S, W148V, P149Q, F150W, S151R, N152W
B5: 71p88P1G4 (designed binder)
chain: B1 chain with W117Y, L118M, E119T, W148R, P149S, F150W, S151K, N152W
B6: 71p88P1G1 (designed binder)
chain: B1 chain with L118M, W148P, F150W, S151R, N152W
B7: 71p88P1A3 (designed binder)
chain: B1 chain with W117Y, E119A, V121T, W148R, P149V, F150L, S151A, N152W
B8: 029-15.A8G (designed binder)
chain: EPPTQKPKKIVNAKKDVVNTKMFEELKSRLDTLAQEVALLKEQQALQTVCLKGTKVHMKCFLAFTQTKTFHEASEDCISRGGTLSTPQTGSENDALYEYLRQSVGNEAEIWLGLNRAWLRPRWVDMTGARIAYKNWETEITAQPDGGTLVSGENCAVLSGAANGKWFDKRCRDQLPYICQFGIV
notes: ATRIMER; also called 1a7b
B9: 029-15.A1H (designed binder)
chain: B8 chain with W118V, T148W, L149V, V150L, S151G, E153K
notes: ATRIMER; also called 8b6b
B10: 029-15.A3C (designed binder)
chain: EPPTQKPKKIVNAKKDVVNTKMFEELKSRLDTLAQEVALLKEQQALQTVCLKGTKVHMKCFLAFTQTKTFHEASEDCISRGGTLSTPQTGSENDALYEYLRQSVGNEAEIWLGLNRATLRPRWVDMTGARIAYKNWETEITAQPDGGKNCAVLSGAANGKWFDKRCRDQLPYICQFGIV
notes: ATRIMER; also called 4a8c

Residue numbers refer to the chain shown, from its start.

The target of the first test is T1, recombinant human TRAIL R1 (DR4)/Fc …. Description: SPR (Biacore), ATRIMER. As for the experimental part:
(§1) Immobilization of an anti-human IgG Fc antibody (Biacore) to the CM5 chip (Biacore) was performed using standard amine coupling chemistry and this surface was used to capture recombinant human DR4 or DR5 receptor Fc fusion protein (R&D Systems). ATRIMER™ dilutions (1-500 nM) were injected over the DR4 and DR5 receptor surface at 30 μl/min and kinetic constants were derived from the sensorgram data using the Biaevaluation software (version 3.1, Biacore). Data collection was 3 minutes for the association and 5 minutes for dissociation. The anti-human IgG surface was regenerated with a 30 s pulse of 3 M magnesium chloride. All sensorgrams were double-referenced against an activated and blocked flow-cell as well as buffer injections.
Clones were then sub-cloned into pANA19 for expression and purification as described above. Cell killing activity was measured as described above, and binding affinity was measured by Biacore.
Background: SPR reads the build-up and loss of mass on a sensor chip optically.
Consider B1, for which the Kd was 3.2 nM; the off-rate (koff) (as a rule, the first-order rate constant of dissociation) is 0.000302 s⁻¹; the on-rate (kon) (in general, a measure of how fast the partners come together) turned out to be 93800 M⁻¹ s⁻¹.
The matching figures for B2: 2.41 nM, 0.0007 s⁻¹ and 349000 M⁻¹ s⁻¹.

A further test deals with T2, DR4 (TRAIL-R1) on cancer cells. Kind of test: cell-based or functional assay.
On to B1, for which the “ED50 (nM) ST486 (cell killing)” value came to 217 nM.
For the molecule B2, the “ED50 (nM) ST486 (cell killing)” value was determined as 25.5 nM.

A further test has the same target. Description: cell-based or functional assay. This is another data set of the same source.
Turning to B3, the “Colo205 % killing (% of TRAIL activity)” value is -18%, the “H2122 % killing (% of TRAIL activity)” value was -5% and the “ST486 % killing (% of TRAIL activity)” value was found to be 58%.
The matching figures for B4: 42%, 0% and 88%.
Regarding B5, the “Colo205 % killing (% of TRAIL activity)” value was 24%, the “H2122 % killing (% of TRAIL activity)” value came to 5% and the “ST486 % killing (% of TRAIL activity)” value was found to be 75%.
The corresponding values for B6 are 12%, 0% and 78%.
The matching figures for B7: -7%, -3% and 41%.

The next test concerns the target T3, recombinant human TRAIL R2 (DR5)/Fc chimera (human, UniProt O14763 54-182).
T3 construct: bought (R&D Systems); not shown: Fc of the bought chimera (R&D Systems)
Description: SPR (Biacore), DR5-Fc captured by anti-Fc, ATRIMER analyte; apparent. As for the experimental part:
as §1
For B8, the Ka worked out at 6.43e+07 M⁻¹, the Kd worked out at 15.6 nM, the koff turned out to be 0.000629 s⁻¹ and the on-rate (kon) was determined as 40500 M⁻¹ s⁻¹.
The corresponding values for B9 are 2.56e+07 M⁻¹, 39.1 nM, 0.000506 s⁻¹ and 12900 M⁻¹ s⁻¹.
The corresponding values for B10 are 1.74e+08 M⁻¹, 5.74 nM, 0.000362 s⁻¹ and 63000 M⁻¹ s⁻¹.

The target of a further test is T2, DR4 (TRAIL-R1) on cancer cells. Kind of test: cell-based or functional assay. The source holds these as a separate data set.
“rhTRAIL-His (from UniProt P50591 95-281) (ligand)” gave an EC50 Colo205 (cell killing) of 0.06 nM and an EC50 ST486 (cell killing) of 0.06 nM.

Another test shares this target. Description: cell-based or functional assay. This is another data set of the same source.
On to B1, for which the “ED50 ST486 (cell killing)” value was 217 nM.
The same measure, in the same setting: for B3 the value was 168 nM.
As to B4, the “ED50 ST486 (cell killing)” value was determined as 3.2 nM.
The same measure, in the same setting: for B5 the value was 75 nM.
Take B6: the “ED50 ST486 (cell killing)” value is 80 nM.
On the same count and under the same terms, the result for B7 reads 170 nM.

The target in another test is DR5 (TRAIL-R2) on cancer cells (human, UniProt O14763 56-440). Description: cell-based or functional assay.
Consider B8, for which the “% cell death of H2122 and A2780 cells, 20 µg/mL, 20 h” value was more than 50%.
The same measure, in the same setting: for B9 the value was more than 50%; for B10, more than 50%.

(Values after patent US20120021995A1 (published 2012).)
